From article PMC8833744, “Strategic Decoy Peptides Interfere with MSI1/AGO2 Interaction to Elicit Tumor Suppression Effects” (Cancers, 2022) come the findings set out here.

The assay has as its target T1, recombinant His-tagged AGO2 (UniProt Q9UKV8 1-859).
T1 construct: AGO2 (argonaute 2); Detected on the array by an HRP-conjugated 6xHis antibody; amine-coupled to a CM5 chip in the SPR; also called His-AGO2; AGO2 recombinant protein; source: recombinant, purified
Nature of the assay: SPR; Biacore T200; His-AGO2 immobilised on a CM5 chip by amine coupling (~7000 RU); peptides 20 to 1280 nM in HBS-P (10 mM HEPES, 150 mM NaCl, 0.005% T20, pH 7.4), 30 µL/min; Langmuir 1:1 model. Particulars: both partners purified. Background: In SPR one partner is held on a chip, and binding of the other changes the refractive index at the surface.

Usually Kd stands for the equilibrium constant for the complex coming apart.

T1 sequence (Q9UKV8 whole entry): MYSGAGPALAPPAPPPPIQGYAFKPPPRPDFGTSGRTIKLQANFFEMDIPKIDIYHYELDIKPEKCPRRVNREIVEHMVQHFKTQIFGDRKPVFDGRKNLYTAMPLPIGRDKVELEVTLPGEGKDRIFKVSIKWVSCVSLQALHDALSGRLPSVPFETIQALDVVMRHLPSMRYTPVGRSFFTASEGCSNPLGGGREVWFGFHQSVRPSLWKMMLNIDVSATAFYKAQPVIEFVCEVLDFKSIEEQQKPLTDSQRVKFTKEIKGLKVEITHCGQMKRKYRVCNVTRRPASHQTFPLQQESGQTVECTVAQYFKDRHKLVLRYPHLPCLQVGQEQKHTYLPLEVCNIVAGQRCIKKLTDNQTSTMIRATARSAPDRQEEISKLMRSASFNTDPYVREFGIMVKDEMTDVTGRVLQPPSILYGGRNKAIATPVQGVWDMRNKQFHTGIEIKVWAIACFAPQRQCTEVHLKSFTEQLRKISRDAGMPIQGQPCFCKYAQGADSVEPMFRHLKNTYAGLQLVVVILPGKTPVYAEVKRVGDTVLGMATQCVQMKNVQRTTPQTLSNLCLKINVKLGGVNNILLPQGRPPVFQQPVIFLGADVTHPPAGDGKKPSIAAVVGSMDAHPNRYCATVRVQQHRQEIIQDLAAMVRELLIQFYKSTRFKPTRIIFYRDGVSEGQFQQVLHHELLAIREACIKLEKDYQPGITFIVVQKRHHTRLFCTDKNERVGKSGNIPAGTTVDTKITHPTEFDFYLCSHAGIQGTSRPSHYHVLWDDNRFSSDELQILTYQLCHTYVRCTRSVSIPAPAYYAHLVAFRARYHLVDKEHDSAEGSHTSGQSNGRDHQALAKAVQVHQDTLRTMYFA

B1: Pep#11 (decoy peptide as used in the SPR) (peptide)
chain: YQFPEFRVERTPLPS
Consider B1, for which the Kd amounted to 515 nM.

B2: Pep#26 (decoy peptide as used in the SPR) (peptide)
chain: HSLGGPLIATAFTNG
On to B2, for which the Kd came to 674 nM.
